Laboratory results from patent publication US6716813B2, “Use of antimicrobial proteins and peptides for the treatment of otitis media and paranasal sinusitis” (priority 2000, dated 2004).

Key:
NTHi strain12 = format: cell-based, nontypeable Haemophilus influenzae; details: 100 mM NaCl in gel
Method: (§1) The bacteria used in the following examples were cultured as follows: Stocks of NTHi12 and M. catarrhalis […] (generous gift of Dr. Xin-Xing Gu) were maintained at -80° C. For experiments, the bacteria were plated on chocolate agar and incubated overnight at 37° C. in 5% CO2. A single colony was then picked and transferred to 10 ml of brain heart infusion (BHI, Becton Dickinson, Cockeysville, Md.), supplemented with hemin (10 μg/ml, Sigma, St. Louis, Mo.) and NAD (10 μg/ml, Sigma, St. Louis, Mo.), and allowed to grow overnight. In the morning, 1/10 volume of the overnight culture was transferred to fresh medium and incubated for 3-hours. The subculture was then washed twice with 10 mM sodium phosphate and the O.D. at 620 nm was determined. For the S. pneumoniae serotypes 3 and 6B (generous gift of Dr. Xin-Xing Gu), a 50 μl aliquot of the -80° C. stock was thawed on ice, added to 10 ml of Todd-Hewitt broth (THB, Becton Dickinson, Cockeysville, Md.) and cultured overnight. […] The subculture was then washed twice with 10 mM sodium phosphate and the O.D. at 620 nm was determined. […] The diameter of the zones of inhibition produced by each of the antimicrobial molecules against the OM pathogens (NTHi, M. catarrhalis and S. pneumoniae) was then measured in three separate experiments and the average and standard deviation were calculated. […]

[1] = system: M. catarrhalis strain 035E; format: cell-based, Moraxella catarrhalis; details: 100 mM NaCl in gel
Method: as §1

S. pneumoniae serotype 3 = format: cell-based, Streptococcus pneumoniae
Method: (§2) The bacteria used in the following examples were cultured as follows: Stocks of NTHi12 and M. catarrhalis […] (generous gift of Dr. Xin-Xing Gu) were maintained at -80° C. For experiments, the bacteria were plated on chocolate agar and incubated overnight at 37° C. in 5% CO2. A single colony was then picked and transferred to 10 ml of brain heart infusion (BHI, Becton Dickinson, Cockeysville, Md.), supplemented with hemin (10 μg/ml, Sigma, St. Louis, Mo.) and NAD (10 μg/ml, Sigma, St. Louis, Mo.), and allowed to grow overnight. In the morning, 1/10 volume of the overnight culture was transferred to fresh medium and incubated for 3-hours. The subculture was then washed twice with 10 mM sodium phosphate and the O.D. at 620 nm was determined. For the S. pneumoniae serotypes 3 and 6B (generous gift of Dr. Xin-Xing Gu), a 50 μl aliquot of the -80° C. stock was thawed on ice, added to 10 ml of Todd-Hewitt broth (THB, Becton Dickinson, Cockeysville, Md.) and cultured overnight. One tenth of the volume of the overnight culture was then transferred to fresh medium and incubated for 3-hours. The subculture was then washed twice with 10 mM sodium phosphate and the O.D. at 620 nm was determined. The radial assay method of […] and coworkers was used, with minor modifications ([…] et al., 1991). The subcultured bacteria (4×10^6 CFU/10 ml underlay gel) were mixed with melted underlay gel at 42° C. (0.1×culture broth-BHI for NTHi and Moraxella and THB for S. pneumoniae-10 mM sodium phosphate, 0.8% low electroendosmosis (EEO)-type agarose) and poured into 8 cm×8 cm square petri plates. The gel was allowed to solidify in the petri plates and wells were punched out with a calibrated 200 μl micropipette tip, cut off at the 50 μl mark (approximately 3 mm). The antimicrobial peptides and proteins were dissolved in 0.01% acetic acid and 4 μl was added to each well. The plates were then incubated for 3 hours at 37° C. in the 5% CO2 incubator. They were next overlaid with the overlay gel (0.5×culture broth, 10 mM sodium phosphate, 0.8% low EEO-type agarose) and covered. The plates were then allowed to incubate overnight at 37° C. in a 5% CO2. The diameter of the zones of inhibition produced by each of the antimicrobial molecules against the OM pathogens (NTHi, M. catarrhalis and S. pneumoniae) was then measured in three separate experiments and the average and standard deviation were calculated. Physiologically, salt concentrations vary depending on the site. However, typically they can be as high as 150 mM. Thus, the salt sensitivity of the antimicrobial molecules was tested. NaCl was added to the gel in Example 2 to obtain a final concentration of 100 mM.

[2] = system: S. pneumoniae serotype 6B; format: cell-based, Streptococcus pneumoniae
Method: as §2

B1: lactoferrin (protein, UniProt P02788 20-710, looked up)
Lactotransferrin: GRRRSVQWCAVSQPEATKCFQWQRNMRKVRGPPVSCIKRDSPIQCIQAIAENRADAVTLDGGFIYEAGLAPYKLRPVAAEVYGTERQPRTHYYAVAVVKKGGSFQLNELQGLKSCHTGLRRTAGWNVPIGTLRPFLNWTGPPEPIEAAVARFFSASCVPGADKGQFPNLCRLCAGTGENKCAFSSQEPYFSYSGAFKCLRDGAGDVAFIRESTVFEDLSDEAERDEYELLCPDNTRKPVDKFKDCHLARVPSHAVVARSVNGKEDAIWNLLRQAQEKFGKDKSPKFQLFGSPSGQKDLLFKDSAIGFSRVPPRIDSGLYLGSGYFTAIQNLRKSEEEVAARRARVVWCAVGEQELRKCNQWSGLSEGSVTCSSASTTEDCIALVLKGEADAMSLDGGYVYTAGKCGLVPVLAENYKSQQSSDPDPNCVDRPVEGYLAVAVVRRSDTSLTWNSVKGKKSCHTAVDRTAGWNIPMGLLFNQTGSCKFDEYFSQSCAPGSDPRSNLCALCIGDEQGENKCVPNSNERYYGYTGAFRCLAENAGDVAFVKDVTVLQNTDGNNNEAWAKDLKLADFALLCLDGKRKPVTEARSCHLAMAPNHAVVSRMDKVERLKQVLLHQQAKFGRNGSDCPDKFCLFQSETKNLLFNDNTECLARLHGKTTYEKYLGPQYVAGITNLKKCSTSPLLEACEFLRK
In the case of B1, the “effect of salt on the growth inhibitory effect against NTHi” value (NTHi strain12) is reported as “completely blocked”, the “effect of salt on the growth inhibitory effect against M. catarrhalis” value [1] is reported as “completely blocked” and the “effect on growth of S. pneumoniae serotype 3” value (S. pneumoniae serotype 3; 10 μg, equivalent to 2.5 mg/ml) is reported as “enhancement of the growth”. For the same molecule, the “effect of salt on the growth inhibitory effect against S. pneumoniae serotype 3” value (S. pneumoniae serotype 3; 100 mM NaCl in gel) was “completely blocked”, the “effect of salt on the growth inhibitory effect against S. pneumoniae serotype 6B” value ([2]; 100 mM NaCl in gel) was “completely blocked” and the “effect on growth of S. pneumoniae serotype 6B” value ([2]; 10 and 40 μg, equivalent to 2.5 and 10 mg/ml) was “enhancement of the growth”.
